Source: the DeepSol protein solubility set

Experiment: soluble on expression in E. coli; label from the status in PepcDB or PDB records

Row | Sequence | soluble on expression in E. coli
1 | GSHMLITASSSKEYLPDLLLFWQNYEYWITNIGLYKTKQRDLTRTPANLDTDTEECMFWMNYLQKDQSFQLMNFAMENLGALYFGSIGDISELYLRVEQYWDRRADKNHSVDGKYWDALIWSVFTMCIYYMPVEKLAEIFSVYPLHEYLGSNKRLNWEDGMQLVMCQNFARCSLFQLKQCDFMAHPDIRLVQAYLILATTTFPYDEPLLANSLLTQCIHTFKNFHVDDFRPLLNDDPVESIAKVTLGRIFYRLCGCDYLQSGPRKPIALHTEVSSLLQHAAYLQDLPNVDVYREENSTEVLYWKIISLDRDLDQYLNKSSKPPLKTLDAIRRELDIFQYKVDSLEEDFRSNNSRFQKFIALFQISTVSWKLFKMYLIYYDTADSLLKVIHYSKVIISLIVNNFHAKSEFFNRHPMVMQTITRVVSFISFYQIFVESAAVKQLLVDLTELTANLPTIFGSKLDKLVYLTERLSKLKLLWDKVQLLDSGDSFYHPVFKILQNDIKIIELKNDEMFSLIKGLGSLVPLNKLRQESLLEEEDENNTEPSDFRTIVEEFQSEYNISDILS | soluble
2 | MSLITLYHCHGARSFRPLWMLEEMGLDYELKMLPFPPRVFAKEYLAINPLGTIPFMIDGDTKMTESSGICQYLGTRHGPTPLVVGVDDPAYGAYLNWMFFSDATLTFPQTLVLRYGTLEPNERRQPQVVEDYAKWFLGRLRAVEVAAGQGDYLCAGRFTAADVVNGYALRLASNLGLAKDFGPNVTAYWARLQQRDGYQRALEAETRAGEAQQVPKRAEGHHHHHH | soluble
3 | MTELAQLQASTEQAAALLKAMSHPKRLLILCMLSGSPGTSAGELTRITGLSASATSQHLARMRDEGLINSQRDAQRILYSIKNEAVNAIIATLKNVYCP | not soluble
4 | LDRHLQPLLLELATLTRAENSGVAPKVSDERKELDRLLAEQEGNRRALTAANVAVDDMELEIRRVQEDERKLRRREAEGKRQLAAEVDEEKRRDIKHDIYAAKSRIADLMSELQEAHNEIHALRNNRDLNQQRVSDTEARIDKARAAVDALGEDTTAADRHERIETLRLELPSDVVAQFDEQRDENEVGVASFNNRSCGGCFIILPPADISIIRRAPMNVLPQCPDCGSYLVRQG | not soluble
5 | GSKKSRLWVDRSGTFKVDAEFIGCAKGKIHLHKANGVKIAVAADKLSNEDLAYVEKITGFSLEKFKAN | soluble
6 | MSPEEVKARGWKELDVILVTGDAYVDHSSFGTAIIGRVLEDAGFRVGIIAQPRWENPEDFKKLGKPRLFFSVSAGNTDSMVSNLTPGLKPRNKDAYSPGGKTGLRPNRAAIIYSNRIKEAFPDMPIVLGGIEASMRRFAHYDYLSDKVRQSILADAPADLVVYGMGELQIVEIAKRLQAGEDIKGIRDISGTVWKMEVKAWKELKGKGKEKAGEQDESENATEEVAKDKSLDPAEFFKEYVEIPSFSEVSQDKAVFAKAFRTYFLEQNPVTGKGIVQPHPKTIIIQNKPMRPLTEAELDHVYELPYTGETHPSYTEPVPALEMVKFSLTTHRGCF | not soluble
7 | MGSDKIHHHHHHMNALPKLNQLRNLRAIIQHGNISAAAQMLHQTQSTLTRSIQELEKTLGVTLLDRGMNSTVLTKAGMMFEPRMNLILNELERAVDELRQIEKLSDGKIAFGCSHFPATSIVPDVIKKFQERHNSTRITIIEGQLSELLSSLRMGKLDFFIGVVSSDLMLNEFVEERLTSCSFSVVARKGHPLANSTSLAELQAAKWYIPAASHGYYSDLETVIFPNGVKSCGSVIFGDSSAIARKLVLNEDYLFVGPRPMFLAPHHKDLISIIPIKDKLPEGHYSLISPRNKKLTPAALNLVNEIRFAYFDFIKSHS | not soluble
8 | SLTDSAAPRLHVQALSADCAEAARRWAERLGLPLEADDEAEFAVQVGEQGLQVLQLGADSPGPVRVDFVEGASAHRRKFGGGSGQMIAKAVGVQPGIRPRVLDATAGLGQDGFVLASLGCEVTLVERQPLIAALLEDGLERARRDPDVAPIAARMRLLGGNSADLMRAWDGEAPQVIYLDPMFPHRDKSALVKKEMRLFRPLVGDDLDAPALLQAALALASHRVVVKRPRKAPIIEGPKPGYSLEGKSSRYDIYPKKALGK | soluble
9 | QLTPFQQEVSRGLKKSVCHKENMLIHAVTGAGKTEMIYETLASILNQGGAVALASPRIDVCIELYKRLSRDFSCPISLLYGESEAYERSPLVIATTHQLLKFYRAFDLLIIDEVDAFPFVDNKMLYYAVDHCLKSDGVKVFLTATS | not soluble
10 | MSLADHIDAIKKEMTSLSSQFNSNKSELERSKQDLSSMQLQMQQQMNDSVQQDLQKAHDTSKKLDNLARTFLALITDPSQQSQLLAEFESISKNGTPQMPVMTPPMMNAVAAMQPHMMMRNPMLNAMGGASPRVSGKGGAPQNGGMNGMSMMQHMQMQAFQAQMMQAQMFQQMPMMMPGMVPGMPPGMAGLPGMMPPNNMAAAMQHFNAQMAAAASVAVSTPSRNPSTSGAASRTRTPLTTSATNSPRPTTEPTIKEEEPQTMEHDVAAAVAATTATATIKQEENSTVAVA | not soluble
11 | MGSDKIHHHHHHMKIAFVSTRGIPNNYGGFEQFAEYISVGMAQRGHEVVVYSPKFHPYQESTYKGVRIKHIYSPETWMGSSVGSFFYDFASLRDALKKEDFDIIYEAGYTSIIPAYIWFNVKKRKRPIFTTNMDGLENKRSKFSPMVRRFLDWEEKMAVKYSHYLIADNMGIHDYYKEKYGKESKFLAYGADIHDDFKAEYLEEFGLKSEEYYILIARLEPENNIVMAIEGYLHSKENGRRPLIVVGKTNTPHGKELVEKYGNERNVEFVGGIYDFKKLDSVRHFSKAYFHGHSVGGTNPSLLEAMAAGCFIFAHDNIFNRAVLKENAFYYPSADKVTEYLNRIDTIAEGSKIQYTARNIEVIRNEYSWESLIDKHEKYFYWLLSQKQ | not soluble
12 | MAKIVILFDFDRTLIDGDSDNWVVTEMGLTEIFHQLRFTLPWNRLMDRMMMELQSQGRSIDDIKSCLKKMPIDSHIIEAIKSAKSSGCDLKIVSDANQFFIEKILEHHDLVDCFSEIYTNPTSLDDNGNLRILPYHSDALPPHSCNLCPSNLCKGLVMDHLRASSSNDQIPRRFIYLGDGGGDFCPTLKLRECDFVMPRTNYPLWKKISDNPLLIKAEVKEWSSAEEQQRILLQLVSTITKEEDS | soluble
13 | GSARPSSSMADFRKFFAKAKHIVIISGAGVSAESGVPTFRGAGGYWRKWQAQDLATPLAFAHNPSRVWEFYHYRREVMGSKEPNAGHRAIAECETRLGKQGRRVVVITQNIDELHRKAGTKNLLEIHGSLFKTRCTSCGVVAENYKSPICPALSGKGAPEPGTQDASIPVEKLPRCEEAGCGGLLRPHVVWFGENLDPAILEEVDRELAHCDLCLVVGTSSVVYPAAMFAPQVAARGVPVAEFNTETTPATNRFRFHFQGPCGTTLPEALA | soluble
14 | MRPCIVIPIYNHKDVIGLTVARLVTHGLPIFIVDDGSDAPTQAVLAALAGQHAGCVTLLRLPVNGGKGAAVMAGLRAARSDGFTHALQIDADGQHDAADVPTFMDAARDHPEAVILGQPVYDATVPKARLYGRYLTHAWVWIETLSFDIRDSMCGFRVYPLALACALIDEVALPTRMDFDIEILVRLHWRRTRFVAIPTRVTYAADGVSHFDVLWDNIRISQSHARLVAGMLVRLPLLLANKARPRQRADQAAAGKAHWWRIAERGSQLGMRLLALSCRLLGTRITALWLYPIVAYFLLTGRAARQASRQYFERLAAASAQDRTPAPGWRSAYRHMIAFAQSGLDKLAAWSGHVSPHRVRFDDPAPFEALMASGRGALVIGAHLGNLEMTRALATRHGQVKVTAVVYIEHARRFNRVLAGAHPEFATHLLEVSDFGPATAMRMQERIDAGELLVIVGDRVPATEMGRTVEATFLGAPARFAQGPYILAHALGCPVYLFFCLKTRQDYTLYFEPFAERIELPRHARATHLATLAQRYASRLEHHCRKAPFQWFNFFDFWARPKKDAHGLEHHHHHH | not soluble
15 | AIASPQDTCCPPDSWPALKVDYKPKGKLEDIGKGLKAYVVGNGPRAVIALNDVFGIESGHSKEICDAIADKGFTVVFPDVFRGKPLQVSDMSKLFDELPGWAKQFDYEPALRKDVVEVILPYLHDKLGFKSNDQIALAGFCWGAFMLFHLAGDTKLPGGPFACGVSFHPSVQIEGVFQRDPLQLIDRATCPQLLLPSAGEPDYMKEEGDAIKKLRAKPFGASCGVKTFPSMQHGWVNRGDRNDPQVVKEAQEALQLAVDFMMRHTKPKA | soluble
16 | MELRAATKLTEEKYELKEGQTLDVKCDYTLEKFASSQKAWQIIRDGEMPKTLACTERPSKNSHPVQVGRIILEDYHDHGLLRVRMVNLQVEDSGLYQCVIYQPPKEPHMLFDRIRLVVTLEHHHHHH | soluble
17 | DRQREAAQPAASQSASAMEANPTPAPDRSTSTSLFGDSDSAPRHRLNEEPAARRTSHDSEGMYTRRSVPRESYRDQRSDDFDDDLDIPDFLR | not soluble
18 | MVGIRRNKGHGEATIFTLRELADATNNFSTECLLGRGGFGSVYKAFLNDRQVVAVKQLDLNGLQGNREFLVEVLMLSLLHHPNLVKLFGYCVDGDQRLLIYEYMPLGSLEDRLHDLRPGQEPLDWTTRMKIAADAAAGLEYLHDEAIPAVIYRDIKPSNILLGEGYNAKLSDFGLAKLGPVGDKTHVTTRVMGTHGYCAPEYLSTGKLTIKSDIYSFGVVFLELITGRRALDSNRPPDEQDLVAWARPLFKDQRKFPKMADPSLHGHFPKRGLFQALAIAAMCLQEKAKNRPSIREVAVALSYLASQTHESQNTAARHTLPGPSVPRVLDNQINQDTSLPSQHGVHMPPLAGTDHMVQEVKENCRSSSHRPGRGRVTPNGADRERALAEANVWVEAWRRQEKTSKMR | not soluble
19 | SNAMAWVVNKQSTQEELANRFRALVEANEILQIPGAHDAMAALVARNTGFLALYLSGAAYTASKGLPDLGIVTSTEVAERARDLVRATDLPVLVDIDTGFGGVLNVARTAVEMVEAKVAAVQIEDQQLPKKCGHLNGKKLVTTEELVQKIKAIKEVAPSLYIVARTDARGVEGLDEAIERANAYVKAGADAIFPEALQSEEEFRLFNSKVNAPLLANMTEFGKTPYYSAEEFANMGFQMVIYPVTSLRVAAKAYENVFTLIKETGSQKDALSNMQTRSELYETISYHDFEELDTGIAKTVLSEDQ | soluble
20 | VMRLVTLRSHDQYNTTIYAMDDRYRGVFGRRDVLFMNEQDMAAQGLEHGDRVDIHTALPGSALTLEDITVVAYGIAPGTVGAYYPEANVLVPLNYLDEESGTPSYKSVPVRLTLRSKEIRPLVGGR | not soluble
21 | ADVTITVNGKVVAKPCTVSTTNATVDLGDLYSFSLMSAGAASAWHDVALELTNCPVGTSRVTASFSGAADSTGYYKNQGTAQNIQLELQDDSGNTLNTGATKTVQVDDSSQSAHFPLQVRALTVNGGATQGTIQAVISITYTYS | soluble
22 | MLVGHARKDITPTEPFYLLGYKTELRNQPAKGIHDHIYINALLFYDDKGNECFLATGDLLELEDIVAADIRQKISRKYGIAMDHVIIGVTHDHHSVRDYHRTWEFGKFSQTYYDFFVDSFVQAFEDCRETLTDVTVQYGQQEIFGFYSNRNHANKPSDNAVSVIKFIADGHAVAGIVNMAVHSTVLGPDNQYLTADLAGNTCTKLAKEWGFFPLMLIGCAADSSNRYERQGRDFAELERASSGLAVAISKIQTPKRLCLGKIQTLTLSHEVVNDKPIYDRKLRTMINDLRSGVIKAIGSQSVEAIVEKCEDQLNKPQFHDLLSLQLLDIGELRLFVFPGELASAGAKKLTSFDRLEHHHHHH | not soluble
